From US20250066499A1 (SUNSHINE GUOJIAN PHARMACEUTICAL SHANGHAI, published 2025)

Experiments:
CD73-ND-L181A = target: T1, CD73-ND-L181A (human, UniProt P21589 27-317); test: ELISA, high plateau value (OD 450 nm)
T1 construct: Alanine mutant of CD73-ND
T1 sequence: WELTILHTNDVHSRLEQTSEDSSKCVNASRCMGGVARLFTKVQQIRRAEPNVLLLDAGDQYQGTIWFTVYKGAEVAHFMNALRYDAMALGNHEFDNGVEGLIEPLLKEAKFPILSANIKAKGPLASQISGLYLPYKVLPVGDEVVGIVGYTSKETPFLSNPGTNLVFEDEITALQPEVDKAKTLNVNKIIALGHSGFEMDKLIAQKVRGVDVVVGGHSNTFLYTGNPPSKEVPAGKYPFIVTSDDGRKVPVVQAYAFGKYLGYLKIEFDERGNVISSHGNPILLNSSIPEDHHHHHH
Protocol: (§1) The ELISA plates were coated with SA protein diluted to 1.5 μg/mL in coating buffer (50 mM carbonate coating buffer, pH 9.6) and incubated overnight at 4° C. The supernatant was discarded, and the plates were washed three times with PBST. Then, 5% skimmed milk powder prepared with PBS was added for blocking and the plates were incubated for 2 h at 37° C. After washing the plates once with PBST, CD73-biotin protein (prepared by biotinylating CD73-His protein according to the EZ-Link NHS-Biotin Reagent instructions) was diluted to 0.5 μg/mL and added at 100 μL/well for incubation at room temperature for 1 h. The plates were washed three times with PBST, and the prepared murine-derived monoclonal antibodies against human CD73 were serially diluted with 1% BSA buffer prepared with PBST and added to the ELISA plates at 100 μl/well. The plates were incubated at 37° C. for 1 h. After washing the plates three times with PBST, HRP-labeled goat anti-mouse IgG secondary antibody was added and the plates were incubated for 30 min at 37° C. After washing the plates three times with PBST, the residual droplets were patted dry on absorbent paper as much as possible. Then, 100 μl of TMB color developing solution was added to each well, and the plates were incubated in the dark at room temperature for 5 min for color development. Subsequently, 50 μl of 2M H₂SO₄ stop solution was added to each well to terminate the substrate reaction. The OD values were read at 450 nm using a multimode microplate reader to analyze the binding ability of the tested antibodies to the target antigen human CD73-His.
(§2) Referring to the experimental method in Example 3, the affinity of 48A11-HuV33 for various mutant proteins of CD73-ND was determined. The SA protein was diluted to 1 μg/mL for coating the ELISA plates, and the biotinylated CD73 protein (CD73-biotin) was used at a concentration of 0.1 μg/mL.

CD73-ND-N185A = target: T2, CD73-ND-N185A (human, UniProt P21589 27-317); test: ELISA, high plateau value (OD 450 nm)
T2 construct: Alanine mutant of CD73-ND
T2 sequence: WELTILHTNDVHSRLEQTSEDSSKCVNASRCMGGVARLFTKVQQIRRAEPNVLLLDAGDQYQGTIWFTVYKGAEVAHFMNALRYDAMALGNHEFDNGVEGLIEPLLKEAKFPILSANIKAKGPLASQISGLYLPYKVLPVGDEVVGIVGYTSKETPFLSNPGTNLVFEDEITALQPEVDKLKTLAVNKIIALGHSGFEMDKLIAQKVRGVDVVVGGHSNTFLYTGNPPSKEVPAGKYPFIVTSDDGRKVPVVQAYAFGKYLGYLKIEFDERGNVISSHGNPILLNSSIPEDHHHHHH
Protocol: as §1, §2

CD73-ND-K180A = target: T3, CD73-ND-K180A (human, UniProt P21589 27-317); test: ELISA, high plateau value (OD 450 nm)
T3 construct: Alanine mutant of CD73-ND
T3 sequence: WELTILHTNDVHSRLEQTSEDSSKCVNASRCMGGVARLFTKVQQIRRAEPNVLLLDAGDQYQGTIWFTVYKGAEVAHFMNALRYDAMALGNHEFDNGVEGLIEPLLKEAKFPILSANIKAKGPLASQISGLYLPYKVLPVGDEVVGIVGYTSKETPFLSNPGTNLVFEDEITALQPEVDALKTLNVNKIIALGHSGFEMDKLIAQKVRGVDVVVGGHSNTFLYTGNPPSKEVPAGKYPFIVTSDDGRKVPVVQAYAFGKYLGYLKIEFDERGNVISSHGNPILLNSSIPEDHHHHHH
Protocol: as §1, §2

CD73-ND-E143A = target: T4, CD73-ND-E143A (human, UniProt P21589 27-317); test: ELISA, high plateau value (OD 450 nm)
T4 construct: Alanine mutant of CD73-ND
T4 sequence: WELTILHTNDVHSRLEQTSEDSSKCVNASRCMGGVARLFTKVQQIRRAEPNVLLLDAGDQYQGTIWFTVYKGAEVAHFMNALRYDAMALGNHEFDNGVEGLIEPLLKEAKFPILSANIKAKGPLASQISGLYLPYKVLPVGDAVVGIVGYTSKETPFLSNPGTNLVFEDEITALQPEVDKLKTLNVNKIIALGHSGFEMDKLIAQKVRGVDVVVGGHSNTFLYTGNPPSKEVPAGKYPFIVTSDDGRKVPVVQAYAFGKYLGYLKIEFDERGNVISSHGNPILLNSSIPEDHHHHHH
Protocol: as §1, §2

CD73-ND-V144A = target: T5, CD73-ND-V144A (human, UniProt P21589 27-317); test: ELISA, high plateau value (OD 450 nm)
T5 construct: Alanine mutant of CD73-ND
T5 sequence: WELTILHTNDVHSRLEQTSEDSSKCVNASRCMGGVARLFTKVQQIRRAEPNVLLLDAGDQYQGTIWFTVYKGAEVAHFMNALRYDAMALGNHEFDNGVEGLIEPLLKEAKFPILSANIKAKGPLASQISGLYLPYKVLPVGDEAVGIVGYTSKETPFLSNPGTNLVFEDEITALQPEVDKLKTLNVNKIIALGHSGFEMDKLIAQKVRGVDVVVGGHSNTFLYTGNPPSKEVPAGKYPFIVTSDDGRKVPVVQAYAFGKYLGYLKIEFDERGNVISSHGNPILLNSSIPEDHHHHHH
Protocol: as §1, §2

CD73-ND-V186A = target: T6, CD73-ND-V186A (human, UniProt P21589 27-317); test: ELISA; decline multiple of Top against CD73-ND
T6 construct: Alanine mutant of CD73-ND
T6 sequence: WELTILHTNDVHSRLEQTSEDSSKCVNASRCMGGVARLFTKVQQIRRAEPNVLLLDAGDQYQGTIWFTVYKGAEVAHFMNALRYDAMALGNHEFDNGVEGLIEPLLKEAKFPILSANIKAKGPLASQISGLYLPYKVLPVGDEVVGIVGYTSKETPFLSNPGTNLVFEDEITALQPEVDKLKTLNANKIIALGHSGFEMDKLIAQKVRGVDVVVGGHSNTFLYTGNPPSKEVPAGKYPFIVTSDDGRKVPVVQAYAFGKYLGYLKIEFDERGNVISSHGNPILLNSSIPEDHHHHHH
Protocol: as §1, §2

B1: 48A11-HuV33 (antibody, human IgG4, V domains shown)
VH: QVQLVQSGAEVKKPGASVKVSCKASGYTFTSYWMHWVRQAPGQGLEWIGEINPSIGRTNYNEKFKSRVTLTRDTSTSTAYMELSSLRSEDTAVYYCARRVYGTMDYWGQGTLVTVSS
VL: DIQMTQSPSSLSASVGDRVTITCKASQDINSYLSWFQQKPGKSPKLLIYRANIWVDGVPSRFSGSGSGQDYTFTISSLQPEDIATYYCLQYDELYTFGQGTKVEIK
notes: Humanized
CD73-ND-L181A
  Top: 1.05
CD73-ND-N185A
  Top: 1.9
CD73-ND-K180A
  Top: 1.74
CD73-ND-E143A
  Top: 1.77
CD73-ND-V144A
  Top: 1.69
CD73-ND-V186A
  Ratio(Top): 1.2 fold
